Data on 13 molecules can be found in patent US20050025764A1 (published 2005).

The term EC50 (read off the curve) denotes the concentration that produces a half-maximal response. Read a high EC50 (read off the curve) as lower potency in that assay. The koff is a measure of how fast the partners let go of each other. Read a high koff as fast dissociation. The kon is a measure of how fast the partners come together. One may read the Kd as the concentration at which binding is half-saturated. Lower therefore signals higher affinity.

Experiment [1] has as its target T1, human CD20 (human, UniProt P11836 1-297).
T1 sequence (looked up): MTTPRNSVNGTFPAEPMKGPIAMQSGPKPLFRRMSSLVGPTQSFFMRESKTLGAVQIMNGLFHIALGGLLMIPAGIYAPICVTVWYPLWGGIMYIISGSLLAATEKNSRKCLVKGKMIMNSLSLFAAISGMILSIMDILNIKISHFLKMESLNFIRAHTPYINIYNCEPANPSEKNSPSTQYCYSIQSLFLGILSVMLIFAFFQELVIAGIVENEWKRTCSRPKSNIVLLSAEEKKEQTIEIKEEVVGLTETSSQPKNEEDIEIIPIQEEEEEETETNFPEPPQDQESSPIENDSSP
Nature of the experiment: fixed Ramos cell ELISA, Fab 1 h, anti-His6 peroxidase, OD 450 (overall binding). The method, then:
(§1) Ramos cells (ATCC) were grown in RPMI 1640 containing 10% heat inactivated Fetal Bovine Serum. Fifty microliters of Ramos cells (2-4×10⁶/ml), were pipetted into each well of a 96 well Poly-D-Lysine coated plate (BIOCAT Becton Dickinson Labware) and incubated at 37620 C., 5% CO₂ for 18 hours. Media was gently aspirated and […] of aqueous buffered zinc formalin (Anatech, Ltd.) was added to each well for 15 minutes at room temperature. Z-fix was removed and the plate was washed with phosphate-buffered saline (PBS) containing 0.05% Tween 20. The plate was blocked for 1 hour with 1% bovine serum albumin (BSA) in PBS. Dilutions of Fab or IgG were incubated with the fixed and blocked Ramos cells for 1 hour at room temperature. The plate was washed 3× with PBS 0.05% Tween […] of anti-His6 Peroxidase Mouse Monoclonal Antibody (Roche Diagnostics Corporation) at a 1:500 dilution were added to the wells and incubated 1 hour at room temperature. The plate was washed as above and developed with tetramethyl benzidine, and the reaction was stopped with 5N H₂SO₄. The plate absorbance was read at OD 450 nm. Dilutions of Fab and conjugate were in 1% BSA/PBS.
On the technique in general: In an ELISA, binding on a coated surface is turned into a signal by an enzyme label.

The target of experiment [2] is T1, human CD20. Nature of the experiment: fixed Ramos cell ELISA, off-rate format: overnight incubation in PBS/BSA after the Fab step, anti-His6 peroxidase, OD 450. The protocol: as §1
(§2) IgG assays were performed similarly except IgG bound was detected with goat anti-human IgG-HRP. To compare antibody off-rate, after incubation with Fab or IgG the plates were incubated over night in PBS/BSA, before proceeding with the second antibody step. To compare antibody on-rate, incubation steps for Fab/IgG binding and with the second antibody were both of 5 minutes duration.

For experiment [3], the target named is T1, human CD20. As to the kind of experiment: fixed Ramos cell ELISA, IgG, on-rate format: 5 min IgG step and 5 min second antibody step, goat anti-human IgG-HRP, OD 450. The method, then:
as §1, §2

Experiment [4] concerns the target T1, human CD20. As to the kind of experiment: fixed Ramos cell ELISA, OD 450 nm.
In experiment [5] the target is T1, human CD20. Nature of the experiment: fixed Ramos cell ELISA, on-rate format: 5 min Fab step and 5 min second antibody step, anti-His6 peroxidase, OD 450. The protocol:
as §1
IgG assays were performed similarly except IgG bound was detected with goat anti-human IgG-HRP. […]

Experiment [6] has as its target T1, human CD20. As to the kind of experiment: IgG binding to SKW 6.4 cells over time, free antibody by ELISA, direct kinetics KinExA software. The protocol:
SKW 6.4 cells were grown in DMEM media supplemented with 10% FCS and harvested at 5-10×10⁵ cells per ml. […] An equal volume of antibody at 100 ng/ml in PBS with 1% BSA at 37620 C. was then added to the cells and the timing for the experiment started. At time intervals from 60 seconds to 10800 seconds a sample of the antibody cell solution was sampled and filtered to remove cells and bound antibody. Free antibody remaining at each time point was then quantified using the ELISA described above.
The kinetics for the antibody cell reaction was calculated using the direct kinetics KinExA software. The OD450 value for each time point was fitted using the previously calculated Kd and antigen concentration and the Kon and Koff for the reaction calculated.

Experiment [7] deals with T1, human CD20. Nature of the experiment: IgG binding to SKW 6.4 cells, KinExA equilibrium software. The protocol: (§3) SKW 6.4 cells were grown in DMEM media supplemented with 10% FCS and harvested at 5-10×10⁵ cells per ml. […] For human peripheral blood B cells, fresh CD19 positively sorted B cells were obtained from Allcells. These cells were washed two times in PBS with 1% BSA and resuspended at a concentration of 8×10⁷/ml.
(§4) Twelve, 3 fold serial dilutions were then made and 100ul of each dilution placed in a 96 well plate. To each dilution […] of antibody at 100 ng/ml was added and the plate incubated at 37620 C., 5% CO₂ for 4 hours. Each sample was then filtered with a 96 well 1 micron filter (Millipore) to remove the cells and bound antibody. Free antibody in solution was then quantified using an ELISA. Briefly, free IgG was captured in a 96 well plate coated with 1 mg/ml of anti-human kappa antibody (Southern Biotechnology) and detected using an anti-human Fc antibody coupled with HRP (Southern Biotechnology). The plate was developed using Fast TMB substrate (Pierce) and read at 450 nm.
(§5) The Kd of the antibody was then determined using the KinExA equilibrium software for an unknown antigen concentration. The OD450 value for each serial dilution was fitted with an estimated antigen concentration and the actual antibody concentration. The Kd and actual antigen concentration were then calculated.

Experiment [8] deals with T1, human CD20. As to the kind of experiment: IgG binding to SKW 6.4 B lymphoma cells, free antibody by ELISA, KinExA equilibrium software. The method, then: as §3, §4, §5

In the experiment with human CD20 [1], C2B8 Fab came in with an EC50 (read off the curve) of 0.06 µg/mL.

B1: AME 1D10 Fab (Fab, V domains shown)
VH: EVQLVQSGAEVKKPGESLKISCKGSGYTFTSYNMHWVRQMPGKGLEWMGAIYPLNGDTSYNQKFKLQVTISADKSISTAYLQWSSLKASDTAMYYCARSTYVGGDWTFDVWGKGTTVTVSS
VL: EIVLTQSPGTLSLSPGERATLSCRASSSVPYIHWYQQKPGQAPRLLIYATSNLASGIPDRFSGSGSGTDFTLTISRLEPEDFAVYYCQQWLSNPPTFGQGTKLEIK
notes: Fab, His-tagged (anti-His6 detection); constant regions and tag not given
On to B1, for which the “EC50 (read off the curve)” value with human CD20 [2] was ~0.2 µg/mL; with human CD20 [1], ~0.06 µg/mL.

B2: AME 1D10 IgG (antibody, V domains shown)
VH: EVQLVQSGAEVKKPGESLKISCKGSGYTFTSYNMHWVRQMPGKGLEWMGAIYPLNGDTSYNQKFKLQVTISADKSISTAYLQWSSLKASDTAMYYCARSTYVGGDWTFDVWGKGTTVTVSS
VL: EIVLTQSPGTLSLSPGERATLSCRASSSVPYIHWYQQKPGQAPRLLIYATSNLASGIPDRFSGSGSGTDFTLTISRLEPEDFAVYYCQQWLSNPPTFGQGTKLEIK
notes: Full IgG
Regarding B2, in the experiment with human CD20 [3], the “EC50 (read off the curve)” value is ~0.4 µg/mL. For the same molecule, in the experiment with human CD20 [4], the “maximum OD relative to the C2B8 antibody” value was ~1.5 times.

B3: 21E1 Hum (Fab, V domains shown)
VH: EVQLVQSGAEVKKPGESLKISCKGSGYTFTSYNMHWVRQMPGKGLEWMGAIYPGNGDTSYNQKFKGQVTISADKSISTAYLQWSSLKASDTAMYYCARSTYYGGDWSFDVWGKGTTVTVSS
VL: EIVLTQSPGTLSLSPGERATLSCRASSSVSYIHWYQQKPGQAPRLLIYATSNLASGIPDRFSGSGSGTDFTLTISRLEPEDFAVYYCQQWLSNPPTFGQGTKLEIK
notes: the panels are titled Fab; also called AME 21E1 Hum; AME 21E1 Hum Fab
In the case of B3, the binding result with human CD20 [1] is “no binding (tested: about 7 µg/ml)”.

B4: AME 15 IgG (antibody, V domains shown)
VH: EVQLVQSGAEVKKPGESLKISCKGSGYTFTSYNMHWVRQMPGKGLEWMGAIYPLNGDTSYNRKSKLQVTISADKSISTAYLQWSSLKASDTAMYYCARSTYVGGDWTFDVWGKGTTVTVSS
VL: EIVLTQSPGTLSLSPGERATLSCRASSSVPYIHWYQQKPGQAPRLLIYATSNLASGIPDRFSGSGSGTDFTLTISRLEPEDFAVYYCQQWLSNPPTFGQGTKLEIK
notes: Full IgG
For B4, the “EC50 (read off the curve)” value with human CD20 [3] is ~0.3 µg/mL. In addition, the “maximum OD relative to the C2B8 antibody” value with human CD20 [4] is ~1.5 times.

B5: AME 18 Fab (Fab, V domains shown)
VH: EVQLVQSGAEVKKPGESLKISCKGSGRTFTSYNMHWVRQMPGKGLEWMGAIYPLTGDTSYNQKFKLQVTISADKSISTAYLQWSSLKASDTAMYYCARSYYVGGDWTFDVWGKGTTVTVSS
VL: EIVLTQSPGTLSLSPGERATLSCRASSSVPYIHWYQQKPGQAPRLLIYATSALASGIPDRFSGSGSGTDFTLTISRLEPEDFAVYYCQQWLSNPPTFGQGTKLEIK
notes: as for B1
For B5, the 50% effective concentration (EC50 (read off the curve)) was ~0.3 µg/mL with human CD20 [5] and ~0.06 µg/mL in the experiment with human CD20 [1].

B6: AME 2C2 IgG (antibody, V domains shown)
VH: EVQLVQSGAEVKKPGESLKISCKGSGYTFTSYNMHWVRQMPGKGLEWMGAIYPLNGDTSYNQKFKLQVTISADKSISTAYLQWSSLKASDTAMYYCARSTYVGGDWTFDVWGKGTTVTVSS
VL: EIVLTQSPGTLSLSPGERATLSCRASSSVSYIHWYQQKPGQAPRLLIYATSNLASGIPDRFSGSGSGTDFTLTISRLEPEDFAVYYCQQWLSNPPTFGQGTKLEIK
notes: constant regions not spelled out
With B6, the “EC50 (read off the curve)” value with human CD20 [3] was ~0.5 µg/mL.

B7: AME 15 Fab (Fab, V domains shown)
VH: EVQLVQSGAEVKKPGESLKISCKGSGYTFTSYNMHWVRQMPGKGLEWMGAIYPLNGDTSYNRKSKLQVTISADKSISTAYLQWSSLKASDTAMYYCARSTYVGGDWTFDVWGKGTTVTVSS
VL: EIVLTQSPGTLSLSPGERATLSCRASSSVPYIHWYQQKPGQAPRLLIYATSNLASGIPDRFSGSGSGTDFTLTISRLEPEDFAVYYCQQWLSNPPTFGQGTKLEIK
notes: as for B1
Turning to B7, the results for the “EC50 (read off the curve)” value with human CD20 [2] and with human CD20 [1] were ~0.2 µg/mL and ~0.05 µg/mL, respectively.

B8: AME 18 IgG (antibody, V domains shown)
VH: EVQLVQSGAEVKKPGESLKISCKGSGRTFTSYNMHWVRQMPGKGLEWMGAIYPLTGDTSYNQKFKLQVTISADKSISTAYLQWSSLKASDTAMYYCARSYYVGGDWTFDVWGKGTTVTVSS
VL: EIVLTQSPGTLSLSPGERATLSCRASSSVPYIHWYQQKPGQAPRLLIYATSALASGIPDRFSGSGSGTDFTLTISRLEPEDFAVYYCQQWLSNPPTFGQGTKLEIK
notes: Full IgG
For B8, the “maximum OD relative to the C2B8 antibody” value in the experiment with human CD20 [4] was ~1.5 times.

B9: AME 33 Fab (Fab, V domains shown)
VH: EVQLVQSGAEVKKPGESLKISCKGSGRTFTSYNMHWVRQMPGKGLEWMGAIYPLTGDTSYNQKSKLQVTISADKSISTAYLQWSSLKASDTAMYYCARSTYVGGDWQFDVWGKGTTVTVSS
VL: EIVLTQSPGTLSLSPGERATLSCRASSSVPYIHWYQQKPGQAPRLLIYATSALASGIPDRFSGSGSGTDFTLTISRLEPEDFAVYYCQQWLSNPPTFGQGTKLEIK
notes: Fab
For the molecule B9, the results for the “EC50 (read off the curve)” value with human CD20 [5] and in the experiment with human CD20 [1] were ~0.5 µg/mL and ~0.08 µg/mL, respectively.

B10: AME 4H5 Fab (Fab, V domains shown)
VH: QVQLVQSGAEVKKPGASVKVSCKASGYTFTSYNMHWVRQAPGQGLEWMGAIYPGNGDTSYNQKFKWRVTMTRDTSTSTVYMELSSLRSEDTAVYYCARSTYYGGDWQFDQWGKGTTVTVSS
VL: DIQMTQSPSSLSASVGDRVTITCRASSSVHYIHWYQQKPGKVPKLLIYATSNLASGVPSRFSGSGSGTDFTLTISSLQPEDVATYYCQQWTFNPPTFGGGTKVEIK
notes: as for B1
With B10, the “EC50 (read off the curve)” value with human CD20 [2] was ~0.1 µg/mL; in the experiment with human CD20 [1] it was ~0.06 µg/mL.

B11: AME 4H5 IgG (antibody, V domains shown)
VH: QVQLVQSGAEVKKPGASVKVSCKASGYTFTSYNMHWVRQAPGQGLEWMGAIYPGNGDTSYNQKFKWRVTMTRDTSTSTVYMELSSLRSEDTAVYYCARSTYYGGDWQFDQWGKGTTVTVSS
VL: DIQMTQSPSSLSASVGDRVTITCRASSSVHYIHWYQQKPGKVPKLLIYATSNLASGVPSRFSGSGSGTDFTLTISSLQPEDVATYYCQQWTFNPPTFGGGTKVEIK
notes: Full IgG
As to B11, in the experiment with human CD20 [4], the “maximum OD relative to the C2B8 antibody” value was ~1.5 times.

B12: AME 5 IgG (antibody, V domains shown)
VH: QVQLVQSGAEVKKPGASVKVSCKASGYTFTSYNMHWVRQAPGQGLEWMGAIYPGNGDTSYNQKFKWRVTMTRDTSTSTVYMELSSLRSEDTAVYYCARSTYYGGDWQFDEWGKGTTVTVSS
VL: DIQMTQSPSSLSASVGDRVTITCRASSSVHYIHWYQQKPGKVPKLLIYATSGLASGVPSRFSGSGSGTDFTLTISSLQPEDVATYYCQTWTFNPPTFGGGTKVEIK
notes: Full IgG
As for B12, in the experiment with human CD20 [6], the koff was 7.9e-05 s⁻¹ and the kon came out at 580000 M⁻¹ s⁻¹. Moreover, the “fold enhancement of Kd compared to the C2B8 antibody” value with human CD20 [7] worked out at 10 fold. For the same molecule, the Kd with human CD20 [8] was 145 pM.
